{
  "source": "the Human Domainome abundance scans (Beltran et al. 2025)",
  "parents": {"B1": {"name": "Transcriptional regulator ERG, residues 117 to 197; numbered along this chain, P11308 (parent)", "chain": "NMTTNERRVIVPADPTLWSTDHVRQWLEWAVKEYGLPDVNILLFQNIDGKELCKMTKDDFQRLTPSYNADILLSHLHYLRE"}},
  "note": "± gives the uncertainty stated by the source.",
  "data": [
    {"variants_of": "B1", "assay": "abundance fitness (aPCA) (normalised: wild type 0, dead -1); higher = more abundant; growth selection in yeast, the domain comes from the species named", "details": "Homo sapiens", "values": [
      {"variant": "NMTTNERRVIVPADPTLWSTDHVRQWLEWAVKEYGLPDVNILLFQNIDGKTLCKMTKDDFQRLTPSYNADILLSHLHYLRE", "note": "[E51T]", "abundance fitness": "0.026 ± 0.052"},
      {"variant": "NMTTNERRVIVPADPTLWSTDHVRQWLEWAVKEYGLPDVNILLFQNIDGKRLCKMTKDDFQRLTPSYNADILLSHLHYLRE", "note": "[E51R]", "abundance fitness": "0.001 ± 0.033"},
      {"variant": "NMTTNERRVIVPADPTLWSTDHVRQWLEWAVKEYGLPDVNILLFQNIDGKVLCKMTKDDFQRLTPSYNADILLSHLHYLRE", "note": "[E51V]", "abundance fitness": "-0.051 ± 0.037"},
      {"variant": "NMTTNERRVIVPADPTLWSTDHVRQWLEWAVKEYGLPDVNILLFQNIDGKNLCKMTKDDFQRLTPSYNADILLSHLHYLRE", "note": "[E51N]", "abundance fitness": "-0.092 ± 0.096"},
      {"variant": "NMTTNERRVIVPADPTLWSTDHVRQWLEWAVKEYGLPDVNILLFQNIDGKPLCKMTKDDFQRLTPSYNADILLSHLHYLRE", "note": "[E51P]", "abundance fitness": "-0.897 ± 0.14"},
      {"variant": "NMTTNERRVIVPADPTLWSTDHVRQWLEWAVKEYGLPDVNILLFQNIDGKWLCKMTKDDFQRLTPSYNADILLSHLHYLRE", "note": "[E51W]", "abundance fitness": "-0.267 ± 0.042"},
      {"variant": "NMTTNERRVIVPADPTLWSTDHVRQWLEWAVKEYGLPDVNILLFQNIDGKQLCKMTKDDFQRLTPSYNADILLSHLHYLRE", "note": "[E51Q]", "abundance fitness": "-0.017 ± 0.049"},
      {"variant": "NMTTNERRVIVPADPTLWSTDHVRQWLEWAVKEYGLPDVNILLFQNIDGKSLCKMTKDDFQRLTPSYNADILLSHLHYLRE", "note": "[E51S]", "abundance fitness": "0 ± 0.038"},
      {"variant": "NMTTNERRVIVPADPTLWSTDHVRQWLEWAVKEYGLPDVNILLFQNIDGKYLCKMTKDDFQRLTPSYNADILLSHLHYLRE", "note": "[E51Y]", "abundance fitness": "-0.026 ± 0.061"},
      {"variant": "NMTTNERRVIVPADPTLWSTDHVRQWLEWAVKEYGLPDVNILLFQNIDGKEGCKMTKDDFQRLTPSYNADILLSHLHYLRE", "note": "[L52G]", "abundance fitness": "-0.694 ± 0.17"},
      {"variant": "NMTTNERRVIVPADPTLWSTDHVRQWLEWAVKEYGLPDVNILLFQNIDGKEVCKMTKDDFQRLTPSYNADILLSHLHYLRE", "note": "[L52V]", "abundance fitness": "-0.308 ± 0.069"},
      {"variant": "NMTTNERRVIVPADPTLWSTDHVRQWLEWAVKEYGLPDVNILLFQNIDGKERCKMTKDDFQRLTPSYNADILLSHLHYLRE", "note": "[L52R]", "abundance fitness": "-0.77 ± 0.11"},
      {"variant": "NMTTNERRVIVPADPTLWSTDHVRQWLEWAVKEYGLPDVNILLFQNIDGKEICKMTKDDFQRLTPSYNADILLSHLHYLRE", "note": "[L52I]", "abundance fitness": "-0.126 ± 0.054"},
      {"variant": "NMTTNERRVIVPADPTLWSTDHVRQWLEWAVKEYGLPDVNILLFQNIDGKEECKMTKDDFQRLTPSYNADILLSHLHYLRE", "note": "[L52E]", "abundance fitness": "-0.367 ± 0.18"},
      {"variant": "NMTTNERRVIVPADPTLWSTDHVRQWLEWAVKEYGLPDVNILLFQNIDGKEHCKMTKDDFQRLTPSYNADILLSHLHYLRE", "note": "[L52H]", "abundance fitness": "-0.689 ± 0.11"},
      {"variant": "NMTTNERRVIVPADPTLWSTDHVRQWLEWAVKEYGLPDVNILLFQNIDGKEACKMTKDDFQRLTPSYNADILLSHLHYLRE", "note": "[L52A]", "abundance fitness": "-0.695 ± 0.12"},
      {"variant": "NMTTNERRVIVPADPTLWSTDHVRQWLEWAVKEYGLPDVNILLFQNIDGKEQCKMTKDDFQRLTPSYNADILLSHLHYLRE", "note": "[L52Q]", "abundance fitness": "-0.946 ± 0.17"},
      {"variant": "NMTTNERRVIVPADPTLWSTDHVRQWLEWAVKEYGLPDVNILLFQNIDGKESCKMTKDDFQRLTPSYNADILLSHLHYLRE", "note": "[L52S]", "abundance fitness": "-0.932 ± 0.12"},
      {"variant": "NMTTNERRVIVPADPTLWSTDHVRQWLEWAVKEYGLPDVNILLFQNIDGKEKCKMTKDDFQRLTPSYNADILLSHLHYLRE", "note": "[L52K]", "abundance fitness": "-0.728 ± 0.11"},
      {"variant": "NMTTNERRVIVPADPTLWSTDHVRQWLEWAVKEYGLPDVNILLFQNIDGKETCKMTKDDFQRLTPSYNADILLSHLHYLRE", "note": "[L52T]", "abundance fitness": "-1.11 ± 0.17"},
      {"variant": "NMTTNERRVIVPADPTLWSTDHVRQWLEWAVKEYGLPDVNILLFQNIDGKEPCKMTKDDFQRLTPSYNADILLSHLHYLRE", "note": "[L52P]", "abundance fitness": "-0.886 ± 0.12"},
      {"variant": "NMTTNERRVIVPADPTLWSTDHVRQWLEWAVKEYGLPDVNILLFQNIDGKEFCKMTKDDFQRLTPSYNADILLSHLHYLRE", "note": "[L52F]", "abundance fitness": "-0.327 ± 0.07"},
      {"variant": "NMTTNERRVIVPADPTLWSTDHVRQWLEWAVKEYGLPDVNILLFQNIDGKEWCKMTKDDFQRLTPSYNADILLSHLHYLRE", "note": "[L52W]", "abundance fitness": "-0.809 ± 0.18"},
      {"variant": "NMTTNERRVIVPADPTLWSTDHVRQWLEWAVKEYGLPDVNILLFQNIDGKECCKMTKDDFQRLTPSYNADILLSHLHYLRE", "note": "[L52C]", "abundance fitness": "-0.928 ± 0.22"},
      {"variant": "NMTTNERRVIVPADPTLWSTDHVRQWLEWAVKEYGLPDVNILLFQNIDGKEMCKMTKDDFQRLTPSYNADILLSHLHYLRE", "note": "[L52M]", "abundance fitness": "-0.324 ± 0.071"},
      {"variant": "NMTTNERRVIVPADPTLWSTDHVRQWLEWAVKEYGLPDVNILLFQNIDGKEYCKMTKDDFQRLTPSYNADILLSHLHYLRE", "note": "[L52Y]", "abundance fitness": "-0.883 ± 0.13"},
      {"variant": "NMTTNERRVIVPADPTLWSTDHVRQWLEWAVKEYGLPDVNILLFQNIDGKENCKMTKDDFQRLTPSYNADILLSHLHYLRE", "note": "[L52N]", "abundance fitness": "-0.97 ± 0.17"},
      {"variant": "NMTTNERRVIVPADPTLWSTDHVRQWLEWAVKEYGLPDVNILLFQNIDGKELGKMTKDDFQRLTPSYNADILLSHLHYLRE", "note": "[C53G]", "abundance fitness": "-0.262 ± 0.058"},
      {"variant": "NMTTNERRVIVPADPTLWSTDHVRQWLEWAVKEYGLPDVNILLFQNIDGKELDKMTKDDFQRLTPSYNADILLSHLHYLRE", "note": "[C53D]", "abundance fitness": "-0.325 ± 0.085"},
      {"variant": "NMTTNERRVIVPADPTLWSTDHVRQWLEWAVKEYGLPDVNILLFQNIDGKELHKMTKDDFQRLTPSYNADILLSHLHYLRE", "note": "[C53H]", "abundance fitness": "-0.574 ± 0.09"},
      {"variant": "NMTTNERRVIVPADPTLWSTDHVRQWLEWAVKEYGLPDVNILLFQNIDGKELAKMTKDDFQRLTPSYNADILLSHLHYLRE", "note": "[C53A]", "abundance fitness": "-0.132 ± 0.048"},
      {"variant": "NMTTNERRVIVPADPTLWSTDHVRQWLEWAVKEYGLPDVNILLFQNIDGKELIKMTKDDFQRLTPSYNADILLSHLHYLRE", "note": "[C53I]", "abundance fitness": "-0.099 ± 0.051"},
      {"variant": "NMTTNERRVIVPADPTLWSTDHVRQWLEWAVKEYGLPDVNILLFQNIDGKELEKMTKDDFQRLTPSYNADILLSHLHYLRE", "note": "[C53E]", "abundance fitness": "-0.471 ± 0.11"},
      {"variant": "NMTTNERRVIVPADPTLWSTDHVRQWLEWAVKEYGLPDVNILLFQNIDGKELFKMTKDDFQRLTPSYNADILLSHLHYLRE", "note": "[C53F]", "abundance fitness": "-0.235 ± 0.054"}
    ]}
  ]
}
